Patent US20070111265A1, “Ligands for mineralocorticoid receptor (MR) and methods for screening for or designing MR ligands” (Van Andel Research Institute, priority 2005, published 2007)
Entries after “also recorded” stand apart in the source; their conditions may differ. No end group written: not given here.

Legend:
[1] = molecular target: T1, MR LBD (Homo sapiens, UniProt P08235, C808S); assay: Peptide profiling: unlabeled peptides compete off SRC2-3 binding to MR (FIG. 1C); conditions: unlabeled peptide 500 nM; 20 nM corticosterone or aldosterone
T1 construct: made in house; host or cells: E. coli BL21DE3 (pET24a)
T1 sequence (P08235 727-984 C808S): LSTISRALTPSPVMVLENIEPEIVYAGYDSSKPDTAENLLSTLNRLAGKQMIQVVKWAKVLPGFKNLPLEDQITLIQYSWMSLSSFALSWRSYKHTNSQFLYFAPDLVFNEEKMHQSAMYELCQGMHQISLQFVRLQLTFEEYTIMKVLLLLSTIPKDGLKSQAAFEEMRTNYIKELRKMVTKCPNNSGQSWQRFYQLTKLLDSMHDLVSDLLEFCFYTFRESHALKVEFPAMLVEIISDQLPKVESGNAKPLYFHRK
Procedure: The cofactors that contain a pair of LXXLL motifs with strong binding affinity to MR are boxed. All peptides have identical length of 15 residues except for SRC1-4 motif, which terminates at position +7 relative to the first leucines (L+1) in the LXXLL motif, and for the AR peptides and the corepressor motifs, which are longer than the coactivator motifs. Sequences of peptides are listed in experimental procedures.
(§1) The binding of various peptide motifs to MR was determined by AlphaScreen assays using a hexahistidine detection kit from Perkin-Elmer. MR proteins were prepared as 6×His-GST fusion proteins for the assays.
The unlabeled peptides that were used in FIG. 1C are listed below in Table 2:
MR is the least studied member among the classical steroid hormone receptors and its physiological coactivators have not been clearly documented. To gain insights into which coactivator is physiologically relevant to MR, the inventors performed peptide profiling experiments using a panel of 38 unlabeled peptides to compete off the binding of the third LXXLL motif of SRC2 (also known as TIF2/GRIP1) to MR. […] The strong binding of the SRC1-4 motif and the PGC1 motifs is consistent with previous studies of the binding of LXXLL motifs to oxosteroid receptors (Hultman et al., 2005; Wu et al., 2004).

[2] = molecular target: T2, purified MR LBD/corticosterone complex (Homo sapiens, UniProt P08235, C808S); assay: AlphaScreen binding of biotinylated coactivator/corepressor peptides (FIG. 1B); conditions: corticosterone-bound MR LBD
T2 construct: made in house; host or cells: E. coli BL21DE3 (pET24a)
T2 sequence (P08235 727-984 C808S): T1 sequence (P08235 727-984 C808S)
Procedure: (B) Binding of various peptides containing coactivator or corepressor motifs to the purified MR LBD/corticosterone complex as measured by AlphaScreen assays. The background reading with the MR LBD alone is less than 200.
as §1
The biotinylated peptides that were used in FIG. 1B are listed below in Table 1: […]

[3] = test system: MR S810 mutated to leucine or methionine; conditions: Geller et al., 2000; cited from earlier work
[4] = molecular target: T3, MR (Homo sapiens, UniProt P08235); assay: IC50 (µM)
T3 construct: receptor expression vector (pRS vector) encoding full-length GR and MR respectively (ATCC); host or cells: Cos-7
T3 sequence (P08235 whole entry, looked up): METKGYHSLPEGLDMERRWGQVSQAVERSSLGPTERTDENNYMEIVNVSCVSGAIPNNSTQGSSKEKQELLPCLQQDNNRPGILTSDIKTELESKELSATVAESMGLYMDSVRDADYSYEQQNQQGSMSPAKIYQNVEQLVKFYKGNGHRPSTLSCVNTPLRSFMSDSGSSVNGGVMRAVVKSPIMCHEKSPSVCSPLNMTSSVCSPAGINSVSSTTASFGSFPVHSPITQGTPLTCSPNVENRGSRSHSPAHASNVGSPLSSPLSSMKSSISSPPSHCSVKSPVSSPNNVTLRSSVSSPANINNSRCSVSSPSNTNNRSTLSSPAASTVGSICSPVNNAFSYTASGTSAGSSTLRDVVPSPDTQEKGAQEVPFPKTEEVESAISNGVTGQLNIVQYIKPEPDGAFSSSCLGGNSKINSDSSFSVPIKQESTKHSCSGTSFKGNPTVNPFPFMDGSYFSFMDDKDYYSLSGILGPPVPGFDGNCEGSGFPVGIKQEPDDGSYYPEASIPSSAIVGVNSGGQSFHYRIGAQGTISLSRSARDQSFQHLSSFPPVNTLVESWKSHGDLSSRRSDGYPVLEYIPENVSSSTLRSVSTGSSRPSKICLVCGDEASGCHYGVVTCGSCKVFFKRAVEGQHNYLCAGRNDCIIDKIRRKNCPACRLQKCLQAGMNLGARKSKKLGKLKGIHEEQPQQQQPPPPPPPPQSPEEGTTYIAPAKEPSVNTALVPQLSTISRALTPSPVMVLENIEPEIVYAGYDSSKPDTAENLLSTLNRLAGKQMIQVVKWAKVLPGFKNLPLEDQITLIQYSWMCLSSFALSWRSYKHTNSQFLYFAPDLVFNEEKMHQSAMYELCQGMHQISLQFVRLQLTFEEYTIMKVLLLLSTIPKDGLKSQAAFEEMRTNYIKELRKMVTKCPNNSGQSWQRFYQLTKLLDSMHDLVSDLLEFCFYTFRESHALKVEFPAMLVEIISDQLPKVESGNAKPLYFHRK
Text: Table printed on a drawing sheet, FIG. 3D
Head of the field: IC50 (µM)
The patent's description of the figure: FIG. 3.
First copying reader's note: The head of the sequence column numbers the residue positions relative to the first leucine of the LXXLL motif; the last two rows are protein fragments given as residue ranges.

PRQGSILYSLLTSSK (listed as Homo sapiens) [DAX1-3, 18]
inhibition of SRC2-3 binding to MR [1]: most potent competitors

AEEPSLLKKLLLAPA [PGC1]
interaction with purified MR LBD [2]: strongly

CC(=O)[C@H]1CC[C@H]2[C@@H]3CCC4=CC(=O)CC[C@]4(C)[C@H]3CC[C@]12C [progesterone]
activation of S810-mutated MR [3]: activated efficiently; also recorded: allows the receptor to respond

WAEFSILRELLAQDV (listed as Homo sapiens) [PGC1β-2, 35]
inhibition of SRC2-3 binding to MR [1]: most potent competitors

C[C@]12CCC(=O)C=C1CC[C@@H]1[C@@H]2C(=O)C[C@@]2(C)[C@H]1CC[C@]2(O)C(=O)CO [cortisone]
activation of S810-mutated MR [3]: activated efficiently

SGNLVPDAASKHKQLSELLRGGSG (listed as Homo sapiens) [CBP]
interaction with purified MR LBD [2]: weakly

GHGEDFSKVSQNPILTSLLQITGN (listed as Homo sapiens) [TRAP220]
interaction with purified MR LBD [2]: weakly

KENNALLRYLLDRDD [SRC3-3]
IC50 [4]: 1.4 µM

QEKHRILHKLLQNGN [SRC3-2]
IC50 [4]: 4.6 µM

GHSFADPASNLGLEDIIRKALMGSF [NCOR-2]
interaction with purified MR LBD [2]: failed to interact
